Data taken from the supplement of paper PMC7125110.
± gives the standard error. For part of these data: Fewer inactive variants are shown than the library holds.

B1: glmS ribozyme (parent)
chain: AUAAAAGCGCCAGAACUACAGAAAUGUAGUUGACGAGGAGGAGGUUUAUCGAAUUUUCGGCGGAUGCCUCCAAA

What was measured:
Settings in all cases: with glucosamine-6-phosphate
[1] = variants of: B1; assay: kcat; higher = faster cleavage; RNA array
Summary of the method: (§1)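 Glucosamine-6-phosphate, from 40 μM to 10 mM in HEPES/KCl/Mg(OAc)2 buffer, was flowed over sequenced MiSeq chips carrying barcoded ribozyme variants transcribed in situ by E. coli RNA polymerase. A hybridised Cy3 probe tracked the variants at 37 °C as tiles were imaged over ~14 h. kobs, kcat and KM were obtained by fitting normalised per-tile medians to exponential decays and then applying weighted Michaelis–Menten fits across concentrations.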

[2] = variants of: B1; assay: self-cleavage kobs at 40 uM GlcN6P; higher = faster cleavage; RNA array
Summary of the method: as §1

[3] = variants of: B1; assay: self-cleavage kobs at 640 uM GlcN6P; higher = faster cleavage; RNA array
Summary of the method: as §1

[4] = variants of: B1; assay: self-cleavage kobs at 10000 uM GlcN6P; higher = faster cleavage; RNA array
Summary of the method: as §1

[5] = variants of: B1; assay: KM; higher = weaker cofactor use; RNA array
Summary of the method: as §1

[6] = variants of: B1; assay: self-cleavage kobs at 2500 uM GlcN6P; higher = faster cleavage; RNA array
Summary of the method: as §1

[7] = variants of: B1; assay: self-cleavage kobs at 160 uM GlcN6P; higher = faster cleavage; RNA array
Summary of the method: as §1

| Variant | kcat [1] | self-cleavage kobs at 40 uM GlcN6P [2] | self-cleavage kobs at 640 uM GlcN6P [3] | self-cleavage kobs at 10000 uM GlcN6P [4] | KM [5] | self-cleavage kobs at 2500 uM GlcN6P [6] | self-cleavage kobs at 160 uM GlcN6P [7] |
| --- | --- | --- | --- | --- | --- | --- | --- |
| AUAAAAGCGCCAGAACUACAGAAAUGUAGCUGACGAGGAGGAGGUUUAUCGAAUUUUCGUCGGAUGCCUCCAAA [U30C G60U] | < 1e-05 s⁻¹ | < 1e-05 s⁻¹ | < 1e-05 s⁻¹ | < 1e-05 s⁻¹ |  |  |  |
| AUAAAAGCGCCAGAACUACAGAAAUGUAGCUGACGAGGAGGAGGUUUAUCGAGUUUUCGGCGGAUGCCUCCAAA [U30C A53G] | 0.000411 ± 4.1e-05 s⁻¹ |  | 9.02e-05 ± 1.4e-05 s⁻¹ | 0.000328 ± 3.8e-05 s⁻¹ | 2120 ± 440 µM | 0.000252 ± 3.6e-05 s⁻¹ |  |
| AUAAAAGCGCCAGAACUACAGAAAUGUAGCUGACGAGGUGGAGGUUUAUCGAAUUUUCGGCGGAUGCCUCCAAA [U30C A39U] | 0.000228 ± 2.1e-05 s⁻¹ |  | 6.71e-05 ± 1e-05 s⁻¹ | 0.000203 ± 2.2e-05 s⁻¹ | 1730 ± 380 µM | 0.000123 ± 1.7e-05 s⁻¹ |  |
| AUAAAAGCGCCAGAACUACAGAAAUGUAUUUGACGAGGAGGAGGUUUAUCGAAUCUUCGGCGGAUGCCUCCAAA [G29U U55C] | 0.00826 ± 0.0027 s⁻¹ | 0.000123 ± 1.8e-05 s⁻¹ | 0.00112 ± 0.0002 s⁻¹ | 0.00588 ± 0.00079 s⁻¹ | 3740 ± 1700 µM | 0.00427 ± 0.0009 s⁻¹ | 0.000198 ± 7.2e-05 s⁻¹ |
| AUAAAAGCGCCAGAACUACAGAAAUGUAGAUGACGAGGAGGAGGUUUAACGAAUUUUCGGCGGAUGCAUCGAAA [U30A U49A C68A C71G] | 4.8e-05 ± 2.1e-05 s⁻¹ |  | 7.12e-05 ± 2.8e-05 s⁻¹ |  |  |  |  |
| AUAAAAGCGCCAGAACUACAGAAAUGUAGCUGACGAGGACGAGGUUUAUCGAAUUUUCGGCGGAUGCCUCCAAA [U30C G40C] | 4.04e-05 ± 5.2e-06 s⁻¹ |  |  | 3.87e-05 ± 1.2e-05 s⁻¹ |  | 2.58e-05 ± 1.2e-05 s⁻¹ |  |
| AUAAAAGCGCCAGAACUACAGAAAUGUAGCUGACGAGGAAGAGGUUUAUCGAAUUUUCGGCGGAUGCCUCCAAA [U30C G40A] | 9.74e-05 ± 1.5e-05 s⁻¹ | < 1e-05 s⁻¹ |  | 7.27e-05 ± 1.2e-05 s⁻¹ | 3260 ± 1400 µM | 4.56e-05 ± 1.3e-05 s⁻¹ |  |
| AUAAAAGCGCCAGAACUACAGAAAUGUAGAUGACGAGGAGGAGGUUUAUCGAACUUUCGGCGGAUGCCUCCAAA [U30A U54C] | 0.00409 ± 0.0013 s⁻¹ | 0.000151 ± 2.1e-05 s⁻¹ | 0.00174 ± 0.00027 s⁻¹ | 0.00543 ± 0.001 s⁻¹ | 1040 ± 490 µM | 0.00215 ± 0.00045 s⁻¹ |  |
| AUAAAAGCGCCAGAACUACAGAAAUGUAGAUUACGAGGAGGAGGUUUAUCGAAUUUUCGGCGGAUGCCUCCAAA [U30A G32U] | 0.000735 ± 0.00018 s⁻¹ |  | 7.63e-05 ± 1.5e-05 s⁻¹ | 0.000475 ± 9.5e-05 s⁻¹ | 4830 ± 1700 µM | 0.000275 ± 4.2e-05 s⁻¹ | 3.89e-05 ± 1.7e-05 s⁻¹ |
| AUAAAAGCGCCAGAACUACAGAAAUGUAUUUGACGAGGAGGAGGUUUAUCGAAUUUUCGGCGGAUGCCGCCAAA [G29U U69G] | 5.24e-05 ± 1.4e-05 s⁻¹ |  | 7.49e-05 ± 1.7e-05 s⁻¹ |  |  | 5.06e-05 ± 1.2e-05 s⁻¹ | 5.79e-05 ± 1.4e-05 s⁻¹ |
| AUAAAAGCGCCAGAACUACAGAAAUGUAGAUGACGAGGAGGAGGUUUAGCGAAUUUUCGGCGGAUGCCUUCAAA [U30A U49G C70U] | 0.000102 ± 2.6e-05 s⁻¹ |  |  | 8.4e-05 ± 2e-05 s⁻¹ |  |  |  |
| AUAAAAGCGCCAGAACUACAGAAAUGUAGCUGACGAGGAGGAGGUUUAUCGAAUUUUCGGGGGAUGCCUCCAAA [U30C C61G] | 1.42e-05 ± 1.3e-06 s⁻¹ |  |  |  |  |  |  |
| AUAAAAGCGCCAGAACUACAGAAAUGUAGAUGACGAGGAGGAGGUUUAUCGAAUAUUCGGCGGAUGCCUCCAAA [U30A U55A] | 0.0085 ± 0.0022 s⁻¹ | 0.000212 ± 3.2e-05 s⁻¹ |  | 0.00686 ± 0.00088 s⁻¹ | 1850 ± 740 µM | 0.00803 ± 0.0017 s⁻¹ | 0.000501 ± 0.00012 s⁻¹ |
| AUAAAAGCGCCAGAACUACAGAAAUGUAUUUGACGAGGAGGAGGUUCAUCGAAUUUUCGGCGGAUGCCUCCAAA [G29U U47C] | 0.000228 ± 1.3e-05 s⁻¹ |  | 8.08e-05 ± 1.4e-05 s⁻¹ | 0.000206 ± 1.8e-05 s⁻¹ | 1050 ± 180 µM | 0.00017 ± 2.9e-05 s⁻¹ | 4.21e-05 ± 1.6e-05 s⁻¹ |
| AUAAAAGCGCCAGAACUACAGAAAUGUAGCUGACGACGAGGAGGUUUAUCGAAUUUUCGGCGGAUGCCUUCAAA [U30C G37C C70U] | 1.63e-05 ± 2e-06 s⁻¹ |  |  |  |  |  |  |
| AUAAAAGCGCCAGAACUACAGAAAUGUAGAUGACGGGGAGGAGGUUUAUCGAAUUUUCGGCGGAUGCCUCCAAA [U30A A36G] | < 1e-05 s⁻¹ | < 1e-05 s⁻¹ | < 1e-05 s⁻¹ |  |  |  |  |
| AUAAAAGCGCCAGAACUACAGAAAUGUAGACGACGAGGAGGAGGUUUAUCGAAUUUUCGGCGGAUGCCUCCAAA [U30A U31C] | 0.00588 ± 0.00051 s⁻¹ | 5.91e-05 ± 1.1e-05 s⁻¹ | 0.000754 ± 0.00011 s⁻¹ | 0.00423 ± 0.0006 s⁻¹ | 4300 ± 500 µM | 0.00197 ± 0.00041 s⁻¹ | 0.000203 ± 4.9e-05 s⁻¹ |
| AUAAAAGCGCCAGAACUACAGAAAUGUAGCUGACGAGGAGGAGGUUUAUCGAAUUUUCGGCGGAUUCCUCCAAA [U30C G66U] | < 1e-05 s⁻¹ |  |  |  |  |  | < 1e-05 s⁻¹ |
